Data: patent US7220539
One block for each substance: values may come before it.

Assays:
TRB-2 = tested on: T1, TRB-2
T1 sequence: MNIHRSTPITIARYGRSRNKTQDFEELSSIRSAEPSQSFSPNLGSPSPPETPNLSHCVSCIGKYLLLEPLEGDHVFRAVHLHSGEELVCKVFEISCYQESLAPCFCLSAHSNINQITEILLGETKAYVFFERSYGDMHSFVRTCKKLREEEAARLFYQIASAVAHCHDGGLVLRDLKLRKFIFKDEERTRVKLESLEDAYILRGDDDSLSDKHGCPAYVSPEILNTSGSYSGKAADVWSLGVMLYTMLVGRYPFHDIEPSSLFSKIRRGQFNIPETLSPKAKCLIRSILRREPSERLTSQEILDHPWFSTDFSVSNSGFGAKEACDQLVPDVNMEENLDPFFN

[1] = tested on: TRB-3 (wild-type, recombinant; tag and species not stated)
[2] = target: Akt (over-expressed or present in transfected cells; isoform and tag not stated); test: cell-based or functional assay
[3] = target: GAL4 ΔPH (amino acids 150-480) Akt construct (yeast) (UniProt P04386); test: cell-based or functional assay
Sequence of UniProt P04386 (P04386 1-147, stated change not applied): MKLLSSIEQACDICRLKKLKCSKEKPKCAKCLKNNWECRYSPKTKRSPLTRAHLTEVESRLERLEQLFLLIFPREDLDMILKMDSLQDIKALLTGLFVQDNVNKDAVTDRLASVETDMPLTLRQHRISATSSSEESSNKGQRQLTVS

Substance: Akt (over-expressed or present in transfected cells; isoform and tag not stated)
- phosphorylation of Akt (TRB-2): TRB-2 was similarly effective at blocking Akt phosphorylation

Substance: HA-tagged Akt1
- Akt activity, in vitro kinase assays with a consensus Akt peptide substrate [1]: Over-expression of TRB-3 reduced Akt activity

- forkhead (Foxo1) activity on an IGFBP1 reporter in HEK293 cells [2]: 3 fold
Substance: TRB-3 (wild-type, recombinant; tag and species not stated)

Substance: TRB-3-VP16 (from UniProt P06492 411-490)
- GAL4 luciferase reporter activity, mammalian two hybrid assay in HEK293 cells, relative to control VP16 expression vector [3]: 5 fold
